This data set in a line: collision cross section of modified peptide (TIMS, N2, iRT-aligned); higher = larger / more extended gas-phase ion. Put shortly: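 Values are averages of 1–3 technical replicates of the most abundant feature for each charge state. Collision cross section was obtained from the Mason-Schamp equation after 1/K0 calibration with three reference ions and run-wise alignment to the median iRT peptide deviation. Synthetic peptide pools (iRT standard spiked 1:40) were separated on a 120-min nanoflow C18 gradient at 60 °C, analysed on a timsTOF Pro/HT (dda-PASEF, nitrogen, ~2.4 mbar) and identified with MaxQuant.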

The mark [1] stands for this setting: charge state: 2, modification: Biotin.
Setting [2] is: charge state: 2, modification: Phospho (Y).
Setting [3] is: charge state: 2, modification: Methyl (R).
Setting [4] is: charge state: 3, modification: Methyl (R).
Where [5] appears, read: charge state: 2, modification: Malonyl.
Where [6] appears, read: charge state: 2, modification: Succinyl.
[7] abbreviates: charge state: 2, modification: Nitro (Y).
[8] abbreviates: charge state: 2, modification: GlyGly (K).
Where [9] appears, read: charge state: 3, modification: GlyGly (K).
Where [10] appears, read: charge state: 2, modification: Butyryl.
Where [11] appears, read: charge state: 3, modification: Butyryl.
Where [12] appears, read: charge state: 3, modification: Dimethyl (K).
[13] abbreviates: charge state: 2, modification: Propionyl.
Setting [14] is: charge state: 2, modification: Crotonyl.
Setting [15] is: charge state: 3, modification: Crotonyl.
Where [16] appears, read: charge state: 2, modification: Acetyl (K).
[17] abbreviates: charge state: 2, modification: Formyl.
Where [18] appears, read: charge state: 3, modification: Formyl.
[19] abbreviates: charge state: 2, modification: HexNAc (ST).
Where [20] appears, read: charge state: 3, modification: Succinyl.
The mark [21] stands for this setting: charge state: 3, modification: Hydroxyproline.
Setting [22] is: charge state: 2, modification: Glutarylation.
The mark [23] stands for this setting: charge state: 3, modification: Glutarylation.
The mark [24] stands for this setting: charge state: 2, modification: hydroxyisobutyryl.
The mark [25] stands for this setting: charge state: 3, modification: hydroxyisobutyryl.
Setting [26] is: charge state: 2, modification: Citrullination (R).

± gives the standard deviation.

In turn, TTEETSKPK [_TTEETSK(Biotin)PK_] gave a collision cross section under setting [1] of 372.34 Å².
Regarding AYDATHLVK [_AY(Phospho (Y))DATHLVK_], the collision cross section is 354.67 ± 0.75 Å² under setting [2] and 427.71 Å² (charge state: 3, modification: Phospho (Y)).
Substance VRLQTTLR [_VR(Methyl (R))LQTTLR_] yielded a collision cross section under setting [3] of 349.69 ± 0.95 Å² and a collision cross section under setting [4] of 439.94 ± 4.3 Å².
Take ILDLKTGTVK [_ILDLK(Malonyl)TGTVK_]: under setting [5], the collision cross section is listed as 359.66 ± 0.75 Å².
As to YEATSVQQK [_Y(Phospho (Y))EATSVQQK_], the collision cross section under setting [2] was 348.75 ± 0.066 Å².
Regarding IGNSYFKEEK [_IGNSYFK(Succinyl)EEK_], under setting [6], the collision cross section came out at 382.2 ± 0.76 Å².
On to YEITEQR [_Y(Nitro (Y))EITEQR_], for which the collision cross section under setting [7] worked out at 327.03 ± 0.71 Å².
“IVFSGNLFQHQEDSKK [_IVFSGNLFQHQEDSK(GlyGly (K))K_]”: the collision cross section worked out at 491.77 Å² under setting [8] and 544.77 ± 1.6 Å² under setting [9].
For the substance “SLFFGGKGAPLQR [_SLFFGGK(Butyryl)GAPLQR_]”, the collision cross section is 406.8 ± 0.75 Å² under setting [10] and 492.14 ± 2.1 Å² under setting [11].
On to “IVSGKDYNVTANSK [_IVSGK(Dimethyl (K))DYNVTANSK_]”, for which the collision cross section by setting is: (charge state: 2, modification: Dimethyl (K)) 404.57 ± 0.47 Å²; under setting [12], 462.9 ± 1.6 Å².
As to “SKLLFSNTAAQK [_SK(Propionyl)LLFSNTAAQK_]”, the collision cross section under setting [13] is on record as 398.2 ± 1.4 Å².
Consider TLDEILQEKK [_TLDEILQEK(Crotonyl)K_], for which the collision cross section by setting is: under setting [14], 381.71 ± 0.8 Å²; under setting [15], 444.38 ± 1.6 Å².
For TTEETSKPK [_TTEETSK(Malonyl)PK_], the collision cross section under setting [5] was 336.7 ± 0.59 Å².
As to SGFGKFER [_SGFGK(Trimethyl (K))FER_], for the setting “charge state: 2, modification: Trimethyl (K)”, the collision cross section is 339.14 Å².
Under setting [5], “GGPGSTLSFVGKR [_GGPGSTLSFVGK(Malonyl)R_]” returned a collision cross section of 380.38 ± 0.0061 Å².
On to “IVSGKDYNVTANSK [_IVSGK(Acetyl (K))DYNVTANSK_]”, for which the collision cross section under setting [16] is 408.96 ± 0.54 Å².
Consider TAIQAAGYPDK [_TAIQAAGY(Nitro (Y))PDK_], for which the collision cross section under setting [7] was 354.49 ± 0.55 Å².
“PASGAGAGAGAGKR [_PASGAGAGAGAGK(Formyl)R_]”: the collision cross section is 349.96 ± 1.4 Å² under setting [17] and 453.33 ± 1.2 Å² under setting [18].
For the substance “AQPSASLGVGYR [_AQPSAS(HexNAc (ST))LGVGYR_]”, the collision cross section under setting [19] came out at 394.91 ± 0.63 Å².
In the case of “TPSSFRQPFTPTSR [_TPSSFR(Methyl (R))QPFTPTSR_]”, the collision cross section under setting [4] was 481.78 ± 1.9 Å².
Regarding “AGQKLIDVNHYAK [_AGQK(Succinyl)LIDVNHYAK_]”, the collision cross section reads like this: under setting [6], 435.59 ± 1.1 Å²; under setting [20], 483.35 ± 2.9 Å².
On to SEASSEFAKK [_SEASSEFAK(Crotonyl)K_], for which, under setting [14], the collision cross section stood at 355.23 ± 0.57 Å².
In the case of “LTSLNVKYNNDK [_LTSLNVK(Propionyl)YNNDK_]”, the collision cross section under setting [13] is reported as 410.81 ± 0.38 Å².
As for “GTITVSAQELKDNR [_GTITVSAQELK(Crotonyl)DNR_]”, the collision cross section stood at 422.36 ± 0.55 Å² under setting [14] and 483.09 ± 1.6 Å² under setting [15].
As to GLPGEKGER [_GLP(Hydroxyproline)GEKGER_], the collision cross section by setting is: (charge state: 2, modification: Hydroxyproline) 345.98 ± 0.8 Å²; under setting [21], 396.91 ± 2 Å².
With SPDEAYAIAKK [_SPDEAYAIAK(Formyl)K_], under setting [17], the collision cross section turned out to be 364.33 ± 1 Å².
LEKTIDDLEEK [_LEK(Propionyl)TIDDLEEK_] displayed a collision cross section under setting [13] of 406.15 ± 0.38 Å².
As to “LQAAYAGDKADDIQK [_LQAAYAGDK(Gluratylation)ADDIQK_]”, the collision cross section reads like this: under setting [22], 440.38 ± 0.95 Å²; under setting [23], 496.91 ± 1 Å².
Substance VNALKNLQVK [_VNALK(Malonyl)NLQVK_] yielded a collision cross section under setting [5] of 368.09 ± 0.62 Å².
As to LDEKENLSAK [_LDEK(Acetyl (K))ENLSAK_], the collision cross section under setting [16] is on record as 366.13 ± 0.94 Å².
Turning to “DASTLQSQKAEGTGDAK [_DASTLQSQK(hydroxyisobutyryl)AEGTGDAK_]”, the collision cross section was 441.13 ± 0.33 Å² under setting [24] and 514.99 ± 2.1 Å² under setting [25].
Turning to “VTLEVGKVIQQGR [_VTLEVGK(Gluratylation)VIQQGR_]”, the collision cross section by setting is: under setting [22], 418.56 ± 0.59 Å²; under setting [23], 485.84 ± 1 Å².
As for “LLRGVGGSHGR [_LLR(Citrullination (R))GVGGSHGR_]”, the collision cross section is listed as 372.77 ± 0.65 Å² under setting [26] and 442.38 ± 1.8 Å² (charge state: 3, modification: Citrullination (R)).
Consider “SGGYGGSRDYYSSR [_SGGYGGSR(Citrullination (R))DYYSSR_]”, for which the collision cross section under setting [26] was 397.63 ± 1.4 Å².
The same measure, in the same setting: to “ANAIGRGAK [_ANAIGR(Citrullination (R))GAK_]” belongs 313.03 ± 0.86 Å².
As for LEEVTGKLQVAR [_LEEVTGK(Formyl)LQVAR_], the collision cross section under setting [17] was 388.92 ± 0.55 Å².
For the substance “LGPPGNPGPSGSPGPKGQK [_LGPPGNP(Hydroxyproline)GPSGSPGPKGQK_]”, under setting [21], the collision cross section came to 472.87 ± 1.2 Å².
“DFDTALKHYDK [_DFDTALK(Gluratylation)HYDK_]” registered a collision cross section under setting [22] of 406.02 ± 0.63 Å² and a collision cross section under setting [23] of 469.01 ± 1.7 Å².
Substance DSINFLDHINGKK [_DSINFLDHINGK(Formyl)K_] displayed a collision cross section under setting [18] of 468.04 Å².
For “IHNAENIQPGEQKYEYK [_IHNAENIQPGEQK(Trimethyl (K))YEYK_]”, for the setting “charge state: 3, modification: Trimethyl (K)”, the collision cross section was 526.11 ± 2.2 Å².
VETTVTSLKTK [_VETTVTSLK(Biotin)TK_] yielded a collision cross section under setting [1] of 412.03 ± 1.9 Å².
For “LQDVSGQLSSSKK [_LQDVSGQLSSSK(hydroxyisobutyryl)K_]”, the collision cross section is listed as 404.16 ± 0.3 Å² under setting [24] and 470.99 ± 5.5 Å² under setting [25].
“LGDVYVNDAFGTAHR [_LGDVY(Nitro (Y))VNDAFGTAHR_]”: the collision cross section is, setting by setting: under setting [7], 443.1 ± 0.55 Å²; (charge state: 3, modification: Nitro (Y)) 500.36 ± 1.2 Å².
For “AAINQKLIETGER [_AAINQK(Propionyl)LIETGER_]”, under setting [13], the collision cross section is 404.63 ± 0.38 Å².
On to LQLEIDQKK [_LQLEIDQK(Methyl (K))K_], for which the collision cross section came to 367.47 ± 2.8 Å² (charge state: 2, modification: Methyl (K)) and 429.39 ± 5.2 Å² (charge state: 3, modification: Methyl (K)).
As for “SLEEEGAAHSGKR [_SLEEEGAAHSGK(Gluratylation)R_]”, the collision cross section turned out to be 420.5 ± 2 Å² under setting [22] and 475.56 ± 1.7 Å² under setting [23].
In the case of “DLGKFQVATDALK [_DLGK(GlyGly (K))FQVATDALK_]”, the collision cross section came to 422.76 ± 0.97 Å² under setting [8] and 498.2 ± 1.1 Å² under setting [9].
Regarding IPQEKCILQTDVK [_IPQEK(Formyl)CILQTDVK_], under setting [17], the collision cross section amounted to 427.41 Å².
Take “FLQEFYQDDELGKK [_FLQEFYQDDELGK(Butyryl)K_]”: the collision cross section reads like this: under setting [10], 451.46 ± 0.51 Å²; under setting [11], 506.1 Å².
For GRGAPPPPPSR [_GR(Methyl (R))GAPPPPPSR_], the collision cross section stood at 339.22 Å² under setting [3] and 437.5 Å² under setting [4].
As for “VTRYPILGIPQAHR [_VTR(Methyl (R))YPILGIPQAHR_]”, under setting [4], the collision cross section came out at 524.3 ± 0.78 Å².
The substance “GPPRGGPGGELPR [_GPPR(Methyl (R))GGPGGELPR_]” returned a collision cross section under setting [4] of 472.6 ± 2.6 Å².
For the substance ASAISIKLGSSK [_ASAISIK(Biotin)LGSSK_], under setting [1], the collision cross section is 410.18 ± 1.1 Å².
Regarding “VPTTEKPTVTVNFR [_VPTTEK(Dimethyl (K))PTVTVNFR_]”, under setting [12], the collision cross section turned out to be 496.28 ± 1.7 Å².
Turning to “GAPGGRGAQLSVPSPAR [_GAPGGR(Methyl (R))GAQLSVPSPAR_]”, under setting [4], the collision cross section is 494.35 ± 0.66 Å².
For “SSGPGGQNVNKVNSK [_SSGPGGQNVNK(hydroxyisobutyryl)VNSK_]”, the collision cross section reads like this: under setting [24], 407.53 ± 1.1 Å²; under setting [25], 447.88 ± 1.1 Å².
Under setting [24], “SDDESSQKDIK [_SDDESSQK(hydroxyisobutyryl)DIK_]” returned a collision cross section of 383.53 ± 0.55 Å².
The substance YTCSFCGK [_Y(Phospho (Y))TCSFCGK_] registered a collision cross section under setting [2] of 336.46 ± 0.067 Å².
Under setting [7], “GYLGPEQLPDCLK [_GY(Nitro (Y))LGPEQLPDCLK_]” gave a collision cross section of 396.71 ± 0.18 Å².
As to “VGVEVPDVNIEGPEGKLK [_VGVEVPDVNIEGPEGK(Succinyl)LK_]”, the collision cross section is, setting by setting: under setting [6], 461.15 ± 2.6 Å²; under setting [20], 499.18 Å².
On to “DDSFLGKLGGTLAR [_DDSFLGK(Butyryl)LGGTLAR_]”, for which the collision cross section by setting is: under setting [10], 417.41 ± 0.39 Å²; under setting [11], 492.3 ± 2.4 Å².
Consider “AVAITQSPSSVR [_AVAIT(HexNAc (ST))QSPSSVR_]”, for which the collision cross section under setting [19] came to 390.4 ± 0.13 Å².

For the origin of these results see the supplement of paper PMC10598134.
